For assay [1], the target named is human γ-thrombin (human) (UniProt P00734). In words: inhibition of γ-thrombin hydrolysis of Sar-Pro-Arg-paranitroanilide; Ki from Ki,app by the procedure of Bieth.
The target in assay [2] is human α-thrombin (human) (UniProt P00734). In words: inhibition of α-thrombin hydrolysis of Sar-Pro-Arg-paranitroanilide; Ki from Ki,app by the procedure of Bieth.
Assay [3] shares this target. In words: cell-based or functional assay.
In assay [4] the target is recombinant extracellular domain of human PAR4 (rPAR4EC), Gly18-Arg78 (human) (UniProt Q96RI0). In words: displacement of 15 µM RPPGFK-biotin from plate-bound rPAR4EC; peptide at 1000 µM.
Assay [5] has the same target. In words: displacement of 15 µM RPPGFK-biotin from plate-bound rPAR4EC; peptide at 300 µM.
For assay [6] the target is unchanged. In words: displacement of 15 µM RPPGFK-biotin from plate-bound rPAR4EC; peptide at 30 µM.

“rOicPaF(p-Br) (D-Arg-Oic-Pro-D-Ala-Phe(p-Br)) (peptide)” returned a Ki in assay [1] of 48.7 µM.

Turning to “rOicPaF(p-NO2) (D-Arg-Oic-Pro-D-Ala-Phe(p-NO2)) (peptide)”, the Ki in assay [2] worked out at 10.6 µM. In assay [3], this substance showed a peptide concentration giving significant prolongation (p<0.05) of the APTT of normal human plasma of 50 µM, a peptide concentration giving significant prolongation (p<0.05) of the PT of normal human plasma of 6.25 µM and a peptide concentration giving significant prolongation (p<0.05) of the TCT of normal human plasma of 1.56 µM. Moreover, the Ki in assay [1] is 87.9 µM.

Consider “rOicPaF(p-I) (D-Arg-Oic-Pro-D-Ala-Phe(p-I)) (peptide)”, for which, in assay [1], the Ki amounted to 59.2 µM.

With “rOicPaF(p-Me) (D-Arg-Oic-Pro-D-Ala-Phe(p-Me)) (peptide)”, the % of RPPGFK-biotin displaced turned out to be 63% in assay [4], 49% in assay [5] and 19% in assay [6]. The substance further gave a Ki in assay [1] of 54.3 µM.

For the substance “rOicPsF(p-Me) (D-Arg-Oic-Pro-D-Ser-Phe(p-Me)) (peptide)”, the Ki in assay [1] amounted to 42.2 µM.
